Test results: article PMC7672554, “Selective Metal Ion Utilization Contributes to the Transformation of the Activity of Yeast Polymerase η from DNA Polymerization toward RNA Polymerization” (International Journal of Molecular Sciences, 2020)

Tests used:
Experiment in all cases: steady-state primer extension, Cy3-labelled RNA primer/DNA template, gel quantitation
Format in all cases: biochemical, Saccharomyces cerevisiae
[1] = substrate: Nc1ccn([C@@H]2O[C@H](COP(=O)(O)OP(=O)(O)OP(=O)(O)O)[C@@H](O)[C@H]2O)c(=O)n1; details: RNA primer, template G (correct pair), 5 mM Mn2+, 20 nM primer/template, 25 mM Tris/HCl pH 7.5, 30 °C
Description: (§1) steady-state primer extension, Cy3-labelled RNA primer/DNA template, gel quantitation on Polη (yeast Polymerase η)

[2] = substrate: Nc1nc2c(ncn2[C@@H]2O[C@H](COP(=O)(O)OP(=O)(O)OP(=O)(O)O)[C@@H](O)[C@H]2O)c(=O)[nH]1; details: RNA primer, template C (correct pair), 5 mM Mn2+, 20 nM primer/template, 25 mM Tris/HCl pH 7.5, 30 °C
Description: as §1

[3] = substrate: Nc1ncnc2c1ncn2[C@@H]1O[C@H](COP(=O)(O)OP(=O)(O)OP(=O)(O)O)[C@@H](O)[C@H]1O; details: RNA primer, template T (correct pair), 5 mM Mn2+, 20 nM primer/template, 25 mM Tris/HCl pH 7.5, 30 °C
Description: as §1

[4] = substrate: O=c1ccn([C@@H]2O[C@H](COP(=O)(O)OP(=O)(O)OP(=O)(O)O)[C@@H](O)[C@H]2O)c(=O)[nH]1; details: RNA primer, template A (correct pair), 5 mM Mn2+, 20 nM primer/template, 25 mM Tris/HCl pH 7.5, 30 °C
Description: as §1

B1: Polη (yeast Polymerase η) (Saccharomyces cerevisiae S288C) (protein)
chain: MSKFTWKELIQLGSPSKAYESSLACIAHIDMNAFFAQVEQMRCGLSKEDPVVCVQWNSIIAVSYAARKYGISRMDTIQEALKKCSNLIPIHTAVFKKGEDFWQYHDGCGSWVQDPAKQISVEDHKVSLEPYRRESRKALKIFKSACDLVERASIDEVFLDLGRICFNMLMFDNEYELTGDLKLKDALSNIREAFIGGNYDINSHLPLIPEKIKSLKFEGDVFNPEGRDLITDWDDVILALGSQVCKGIRDSIKDILGYTTSCGLSSTKNVCKLASNYKKPDAQTIVKNDCLLDFLDCGKFEITSFWTLGGVLGKELIDVLDLPHENSIKHIRETWPDNAGQLKEFLDAKVKQSDYDRSTSNIDPLKTADLAEKLFKLSRGRYGLPLSSRPVVKSMMSNKNLRGKSCNSIVDCISWLEVFCAELTSRIQDLEQEYNKIVIPRTVSISLKTKSYEVYRKSGPVAYKGINFQSHELLKVGIKFVTDLDIKGKNKSYYPLTKLSMTITNFDIIDLQKTVVDMFGNQVHTFKSSAGKEDEEKTTSSKADEKTPKLECCKYQVTFTDQKALQEHADYHLALKLSEGLNGAEESSKNLSFGEKRLLFSRKRPNSQHTATPQKKQVTSSKNILSFFTRKK
notes: overexpressed in yeast as N-terminal GST fusion, GST removed with PreScission protease; no truncation stated
B1 showed a Km [1] of 1.89 ± 0.42 µM, a kcat [1] of 0.078 ± 0.00367 s⁻¹ and a kcat/Km [1] of 41300 M⁻¹ s⁻¹. The Km [2] was 2.55 ± 0.63 µM, the kcat [2] was 0.0845 ± 0.0045 s⁻¹ and the kcat/Km [2] was 33200 M⁻¹ s⁻¹. For the same protein, the Km [3] was 2.51 ± 0.64 µM, the kcat [3] was 0.0435 ± 0.00233 s⁻¹ and the kcat/Km [3] was 17300 M⁻¹ s⁻¹. For the same protein, the Km [4] was 12.8 ± 2.25 µM, the kcat [4] was 0.0585 ± 0.00317 s⁻¹ and the kcat/Km [4] was 4500 M⁻¹ s⁻¹.
